Experimental data taken from PMC6400556 (The Journal of Cell Biology, 2019).

T1: GST-FAPP1 full length (four-phosphate-adaptor-protein-1) (human, UniProt Q9HB20 1-300)
T1 sequence (looked up): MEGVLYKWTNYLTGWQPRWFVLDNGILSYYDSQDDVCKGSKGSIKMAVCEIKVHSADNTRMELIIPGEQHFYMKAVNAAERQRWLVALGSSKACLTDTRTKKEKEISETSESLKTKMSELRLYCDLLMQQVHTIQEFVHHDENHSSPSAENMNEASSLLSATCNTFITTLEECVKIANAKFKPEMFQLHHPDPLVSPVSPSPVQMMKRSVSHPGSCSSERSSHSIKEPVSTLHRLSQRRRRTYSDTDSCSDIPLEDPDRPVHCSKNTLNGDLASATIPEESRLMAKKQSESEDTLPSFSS

B1: GST-FAPP1 residues 1–100 (domain or fragment, human, UniProt Q9HB20 1-100, looked up)
chain: MEGVLYKWTNYLTGWQPRWFVLDNGILSYYDSQDDVCKGSKGSIKMAVCEIKVHSADNTRMELIIPGEQHFYMKAVNAAERQRWLVALGSSKACLTDTRT
B2: His-Sac1 residues 1–188 (domain or fragment, human, UniProt Q9NTJ5 1-188, looked up)
chain: MATAAYEQLKLHITPEKFYVEACDDGADDVLTIDRVSTEVTLAVKKDVPPSAVTRPIFGILGTIHLVAGNYLIVITKKIKVGEFFSHVVWKATDFDVLSYKKTMLHLTDIQLQDNKTFLAMLNHVLNVDGFYFSTTYDLTHTLQRLSNTSPEFQEMSLLERADQRFVWNGHLLRELSAQPEVHRFALP

Legend:
His-Sac1 residues 1–188 = target: B2; assay: pull-down
[1] = target: T1, GST-FAPP1 full length …; assay: pull-down

Question: Does B1 bind (His-Sac1 residues 1–188)?
Answer: binds

Question: Does B2 bind [1]?
Answer: binds
